# US20200239586A1 (LA TROBE UNIVERSITY, published 2020)
# T1: synthetic peptide hFn14 sub-domain 1p (human, biotin on the added C-terminal lysine)
# T1 construct: synthesised by GLBiochem
# T1 peptide: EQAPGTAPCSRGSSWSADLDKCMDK
# T2: synthetic peptide Sub-domain 2 Cys 3&6 ΔS (human, not fully specified; biotin on the added C-terminal lysine)
# T2 construct: also called sub-domain 2 cys3&6ΔS mutant
# T2 peptide: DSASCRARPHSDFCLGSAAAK
# Tests used:
# [1] = molecular target: T1, synthetic peptide hFn14 sub-domain 1p; experiment: ELISA on biotinylated synthetic peptide
# Description: Peptides representing sub-domains 1p, 2 and 3 of hFn14 (FIG. 20, Panels B and C and FIG. 14, Panel A) and for disulfide pair mutants (Cys3&6ΔS and Cys4&5ΔS; FIG. 20 Panels D and E) were synthesized by GLBiochem Ltd. (Shanghai, China) and the cysteine residues for disulfide bonds were chosen as described in the solution structure by He et al., (2009). An additional lysine residue was added to the C-terminus in order to attach a biotin moiety and to enable the peptides to bind to neutravidin coated plates (Pre-blocked; Pierce). For these experiments, a control peptide with a biotin at the C-terminus was used as a negative control and isotype control antibodies were also used.
# The ELISA was performed essentially according to the manufacturer's recommended protocol (Pierce). Briefly, peptide was coated onto wells (in duplicate) at 1-10 μg/ml for 2 hours at room temperature. Wells were washed in PBS/0.05% Tween 20/0.1% BSA 3 times and dilutions of each antibody were added in wash buffer for 1 hour with gentle agitation. After another three washes anti-mouse HRP-conjugated to horse radish peroxidase (HRP; Chemicon) was added at 1/1000 dilution for 1 hour shaking. Finally, after 4 further washes the plate was developed using TMB (3,3′,5,5′-tetramethylbenzidine) substrate (Pierce), and the reaction was stopped using 2M H2SO4 solution. Optical density at 450 nm was quantified using a Spectromax absorbance spectrophotometer.
# [2] = molecular target: T3, Histidine tagged hFn14 extracellular domain, bacterially expressed (human, UniProt Q9NP84 28-77); experiment: SPR (ProteOn XPR36), mAb coupled to chip, His-tagged hFn14 analyte, Langmuir 1:1 fit
# T3 construct: also called recombinant Fn14; recombinant human Fn14; not shown: (His)6 tag from pET-15b
# Description: The kinetic analysis of the monoclonal antibodies was performed on a ProteOn XPR36 system (BioRad) Laboratories) essentially according to the protocol from Nahshol et al (2008). Monoclonal antibodies against hFn14 (50 μg/ml) were covalently coupled to a GMC chip. Analytes were a serial dilution of bacterially expressed and purified Histidine tagged hFn14. The binding sensorgrams were collected, processed and analyzed using the integrated ProteOn Manager software (BioRad Laboratories). Binding curves were fitted using the Langmuir model describing 1:1 binding stoichiometry.
# Binding kinetics of anti-Fn14 antibodies CRCBT-06-001, CRCBT-06-002, CRCBT-06-004, ITEM-1 and ITEM-4 were assessed as described herein and results are set out in Table 4.
# [3] = molecular target: T2, synthetic peptide Sub-domain 2 Cys 3&6 …; experiment: peptide ELISA: biotinylated synthetic peptide on neutravidin plate, antibody titrated (legend: 0.1-0.0001 µg/ml; axis 'Log (c)'), anti-mouse HRP, TMB, OD 450 nm
# [4] = molecular target: phage expressed hFn14 mutant D62A (human, UniProt Q9NP84 28-77); experiment: phage ELISA (Method 2): antibody coated on the plate, 10-fold dilutions of phage displaying hFn14 D62A; biotin anti-M13 antibody, streptavidin-HRP, TMB, OD 450 nm; x axis = dilution of phage
# Excerpt: ELISAs showing the reactivity of mutant hFn14 phage constructs with the anti-Fn14 monoclonal antibodies CRCBT-06-001, CRCBT-06-002, CRCBT-06-004 compared to ITEM-1 and ITEM-4. Binding was detected using Biotin-conjugated anti-M13-phage monoclonal antibody followed by HRP-conjugated Streptavidin and TMB substrate. Optical density at 450 nm was quantified using a Spectramax spectrophotometer. Error bars for each dilution represent the standard deviation of duplicate assays. FIG. 28A L46A, FIG. 28B D51A and FIG. 28C D62A. In all cases error bars represent the standard deviation. X axis=dilution of phage. Methods according to Epitope mapping using phage expressed Fn14—Method 2.
# The wells of Maxisorp immunoplates (Nunc) were coated overnight at 4° C. with the target monoclonal antibodies or recombinant Tweak-Fc at a concentration of 1.5 μg/ml in PBS. mAb 5G8 was used as a negative control for ELISA plates coated with tested antibodies. […] 10-fold serial dilutions of phage were made using PBS solution and phage dilutions were added to the coated, blocked ELISA plates for 1 hour, shaking at room temperature. […]
# Method A: HRP-conjugated anti-M13-phage antibody (GE Healthcare) at a 1/5000 dilution in PBS was then added to the wells of the ELISA plates for 1 hour, shaking at room temperature. […] Optical density at 450 nm was quantified using a Spectramax absorbance spectrophotometer.
Binder,binding result [1],Kd [2] [nM],koff [2] [s⁻¹],kon [2] [M⁻¹ s⁻¹],binding result [3],binding result [4]
"CRCBT-06-001 (antibody, IgG2b, V domains shown) VH: QVQLQQSGGGLVQPGGSMKLSCIASGFTFSSYWMSWVRQSPEKGLEWVAEIRSKSDNYATHYAESVKGKFTISRDDSKSRFFLQMNNLRAEDTGIYYCSSTYADYFHYWGQGTDLTVSS VL: DIVMTQTPASLAVSLGQRATISCRASQSVSTSTYSYMHWYQQKPGQPPKLLIKYASSLESGVPARFSGSGSGTDFTLNIHPVEEDDTATYYCQHSWEIPYTFGGGTKLEIKR",no binding,0.55,0.000102,186000,binds,binds
"CRCBT-06-002 (antibody, IgG1, V domains shown) VH: EVKLQQSGGGLVQPGGSMKLSCVASGFTFSYYWMNWVRQSPEQGLEWIAEIRLQSNDYPTHYAESVKGRFTISRDDSKNSVYLQMNNLRPEDTGIYYCACRYADYFDHWGQGTTLTVSS VL: DTVLTQSPASLVVSLGQRATISCRASQSVSTSDYSYIHWYQQKPGQPPKFLIKYASNRDSGVPARFSGSGSGTDFTLNIHPVEEDDTAIYYCQHSWEIPPTFGAGTKLELQR",no binding,0.198,2.59e-05,131000,binds,binds
